Results as given in the supplement of paper PMC9112550, “Optimization of the antimicrobial peptide Bac7 by deep mutational scanning” (BMC Biology, 2022).

Each sequence was assayed on Escherichia coli TOP10 (assay: shrunken log2 fold change of peptide-encoding DNA abundance (4.5 h post-induction vs induction); higher = less antimicrobial activity (less host growth inhibition)). Details: time post-induction: 4.5 h; library: site-saturation at positions 5, 18, 19, 20.
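Note: peptides expressed intracellularly from a pBAD plasmid library in pooled LB shake-flask culture, induced with 0.3% L-arabinose, DNA abundance read by NGS, three biological replicates, DESeq2 with apeglm shrinkage.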

| Sequence | shrunken log2 fold change |
| --- | --- |
| RRIRARPPRLPRPRPRPWYQPRP | -0.287 |
| RRIRARPPRLPRPRPRPWYVPRP | -0.0927 |
| RRIRARPPRLPRPRPRPYAHPRP | -0.149 |
| RRIRARPPRLPRPRPRPYATPRP | 0.0217 |
| RRIRARPPRLPRPRPRPYEGPRP | -0.195 |
| RRIRARPPRLPRPRPRPYETPRP | -0.0398 |
| RRIRARPPRLPRPRPRPYFFPRP | -0.225 |
| RRIRARPPRLPRPRPRPYFTPRP | -0.71 |
| RRIRARPPRLPRPRPRPYGHPRP | -0.095 |
| RRIRARPPRLPRPRPRPYHAPRP | -0.0253 |
| RRIRARPPRLPRPRPRPYHDPRP | -0.365 |
| RRIRARPPRLPRPRPRPYHRPRP | -0.047 |
| RRIRARPPRLPRPRPRPYIIPRP | -0.445 |
| RRIRARPPRLPRPRPRPYIKPRP | -1.17 |
| RRIRARPPRLPRPRPRPYILPRP | -0.983 |
| RRIRARPPRLPRPRPRPYIQPRP | -0.873 |
| RRIRARPPRLPRPRPRPYKEPRP | -0.423 |
| RRIRARPPRLPRPRPRPYKHPRP | -0.881 |
| RRIRARPPRLPRPRPRPYLGPRP | 0.0554 |
| RRIRARPPRLPRPRPRPYLKPRP | -0.352 |
| RRIRARPPRLPRPRPRPYMRPRP | -0.0199 |
| RRIRARPPRLPRPRPRPYPMPRP | 0.019 |
| RRIRARPPRLPRPRPRPYQEPRP | 0.0175 |
| RRIRARPPRLPRPRPRPYRKPRP | -0.502 |
| RRIRARPPRLPRPRPRPYRMPRP | 0.0568 |

| Sequence | shrunken log2 fold change |
| --- | --- |
| RRIRARPPRLPRPRPRPYRPPRP | -0.179 |
| RRIRARPPRLPRPRPRPYRSPRP | -0.51 |
| RRIRARPPRLPRPRPRPYRYPRP | -0.274 |
| RRIRARPPRLPRPRPRPYSHPRP | -0.171 |
| RRIRARPPRLPRPRPRPYTDPRP | -0.785 |
| RRIRARPPRLPRPRPRPYTIPRP | -0.236 |
| RRIRARPPRLPRPRPRPYTKPRP | -0.156 |
| RRIRARPPRLPRPRPRPYTRPRP | -0.124 |
| RRIRARPPRLPRPRPRPYVHPRP | -0.728 |
| RRIRARPPRLPRPRPRPYWEPRP | -0.312 |
| RRIRARPPRLPRPRPRPYWGPRP | -0.43 |
| RRIRARPPRLPRPRPRPYWMPRP | -0.275 |
| RRIRARPPRLPRPRPRPYWPPRP | -0.00546 |
| RRIRARPPRLPRPRPRPYWWPRP | -0.195 |
| RRIRARPPRLPRPRPRPYWYPRP | -0.763 |
| RRIRARPPRLPRPRPRPYYDPRP | -0.215 |
| RRIRARPPRLPRPRPRPYYGPRP | -0.363 |
| RRIRARPPRLPRPRPRPYYTPRP | -0.762 |
| RRIRCRPPRLPRPRPRPACLPRP | -0.111 |
| RRIRCRPPRLPRPRPRPACMPRP | -0.162 |
| RRIRCRPPRLPRPRPRPAEPPRP | 0.368 |
| RRIRCRPPRLPRPRPRPAFFPRP | 0.0268 |
| RRIRCRPPRLPRPRPRPAFHPRP | -0.389 |
| RRIRCRPPRLPRPRPRPAKFPRP | 0.154 |
| RRIRCRPPRLPRPRPRPAKKPRP | 0.00097 |

| Sequence | shrunken log2 fold change |
| --- | --- |
| RRIRCRPPRLPRPRPRPAKLPRP | 0.0355 |
| RRIRCRPPRLPRPRPRPAKSPRP | 0.448 |
| RRIRCRPPRLPRPRPRPAMGPRP | -0.0638 |
| RRIRCRPPRLPRPRPRPAMIPRP | 0.111 |
| RRIRCRPPRLPRPRPRPANFPRP | -0.0131 |
| RRIRCRPPRLPRPRPRPANNPRP | -0.409 |
| RRIRCRPPRLPRPRPRPANPPRP | -0.057 |
| RRIRCRPPRLPRPRPRPANTPRP | -0.265 |
| RRIRCRPPRLPRPRPRPANWPRP | 0.938 |
| RRIRCRPPRLPRPRPRPAPLPRP | 0.645 |
| RRIRCRPPRLPRPRPRPAQDPRP | 0.289 |
| RRIRCRPPRLPRPRPRPAQHPRP | 0.0537 |
| RRIRCRPPRLPRPRPRPAQVPRP | -0.053 |
| RRIRCRPPRLPRPRPRPARGPRP | 0.297 |
| RRIRCRPPRLPRPRPRPARPPRP | 0.52 |
| RRIRCRPPRLPRPRPRPARVPRP | 0.453 |
| RRIRCRPPRLPRPRPRPAVPPRP | 0.073 |
| RRIRCRPPRLPRPRPRPAVWPRP | 0.617 |
| RRIRCRPPRLPRPRPRPAWAPRP | 0.108 |
| RRIRCRPPRLPRPRPRPAYLPRP | -0.247 |
| RRIRCRPPRLPRPRPRPCCRPRP | -0.106 |
| RRIRCRPPRLPRPRPRPCECPRP | -0.0911 |
| RRIRCRPPRLPRPRPRPCFHPRP | -0.597 |
| RRIRCRPPRLPRPRPRPCFYPRP | -0.675 |
| RRIRCRPPRLPRPRPRPCGAPRP | 0.285 |
